{"source": "patent US20240150441A1", "about": "(ARIZONA BOARD OF REGENTS ON BEHALF OF ARIZONA STATE …, published 2024)", "binders": {"B1": {"name": "plant-made tixagevimab (pTixagevimab) (antibody, V domains shown)", "VH": "QMQLVQSGPEVKKPGTSVKVSCKASGFTFMSSAVQWVRQARGQRLEWIGWIVIGSGNTNYAQKFQERVTITRDMSTSTAYMELSSLRSEDTAVYYCAAPYCSSISCNDGFDIWGQGTMVTVSS", "VL": "not shown"}}, "key": {"[1]": {"target": "spike (S) protein of the authentic parental Omicron variant (B.1.1.529) of SARS-CoV-2 (SARS-CoV-2, B.1.1.529 (Omicron) variant, UniProt P0DTC2 14-1273)", "test": "cell-based or functional assay"}, "[2]": {"target": "spike (S) protein of the BA.4/5 SARS-CoV-2 pseudovirus (SARS-CoV-2, Omicron subvariant BA.4/5, UniProt P0DTC2 14-1273)", "test": "cell-based or functional assay"}}, "data": [{"binder": "B1", "values": [{"measurement": "neutralization of authentic B.1.1.529 (Omicron) virus, foci-forming assay, IC50", "setting": "[1]", "value": 19.7, "unit": "µg/mL"}, {"measurement": "neutralization of BA.4/5 pseudovirus, luciferase reporter assay, IC50", "setting": "[2]", "value": 26.7, "unit": "µg/mL"}]}]}
